Article PMC9367177

Target: SARS-CoV-2 RBD (Wuhan-1), monomeric, His-Avitag (SARS-CoV-2, Wuhan-1) (UniProt P0DTC2)
Assay: SPR

Substance: CC12.1 IgG (antibody)
- Kd: 6 nM
